In patent US20220289857A1:

Molecular target: human Fn14 (full length) on cells (human) (UniProt Q9NP84)
Experiment: cell-based or functional assay

human Fn14 (full length) on cells (human), sequence (Q9NP84 28-129): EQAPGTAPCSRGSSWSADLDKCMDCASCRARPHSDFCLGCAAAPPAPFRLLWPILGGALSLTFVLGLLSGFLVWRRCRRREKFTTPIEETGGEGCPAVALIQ

ICAM-1 MFI on HRMC, 250 ng/mL rhTWEAK, mAb 0.1 µg/mL: 9620 MFI
B1: ITEM-4 commercial anti-Fn14 monoclonal antibody (antibody, from another filing, V domains shown)
VH: QVQLQQSGPELVKPGASVKMSCKASGYTFTDFIIAWVKQRTGQGLEWIGEIYPGTGRTYYSEKFRGKATLTADKSSNTAYMQLSSLTSVDSAVYFCARRTIYYDYDGDYWGQGTTLTVSS
VL: DIVMTQAAFSNPVTLGTSASISCRSSKSLLHSNGITYLYWYLQKPGQSPQLLIYQMSNLASGVPDRFSSSGSGTDFTLRISRVEAEDVGVYYCAHNLELPWTFGGGTKLELK
